The text below walks through data of patent US20150005474A1.

Experiment [1] has as its target TR5, non-glycosylated MUC1 peptide […]n with n=5. Put plainly: ELISA, 10 µg/ml antibody; reference is TR1 (SEQ ID NO: 72).
For experiment [2], the target named is glycosylated 30mer MUC1 peptide. Put plainly: ELISA, 10 µg/ml antibody; reference is the non-glycosylated 30mer. On the technique in general: ELISA stands for enzyme-linked immunosorbent assay.
For experiment [3] the target is unchanged. Put plainly: ELISA of Example 5.1; reference is the non-glycosylated 30mer.

Chain of glycosylated 30mer MUC1 peptide (peptide, as listed by the source): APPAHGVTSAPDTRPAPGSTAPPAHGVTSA
Chain of TR5, non-glycosylated MUC1 peptide […]n with n=5 (peptide, as listed by the source): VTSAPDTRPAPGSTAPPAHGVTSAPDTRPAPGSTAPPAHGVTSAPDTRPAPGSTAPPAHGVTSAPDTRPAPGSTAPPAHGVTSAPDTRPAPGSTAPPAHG

In the case of C595 (antibody), in experiment [1], the factor (ratio of the signal with TR5 peptide to that with TR1 peptide) was found to be 1.1. In addition, the factor (ratio of glycosylated/non-glycosylated peptide) in experiment [2] was under 1.2.

Turning to SM3 (antibody), in experiment [1], the factor (ratio of the signal with TR5 peptide to that with TR1 peptide) was found to be 2.1. The substance further had a factor (glycosylated against non-glycosylated peptide) in experiment [3] of 1.5. Moreover, the factor (ratio of glycosylated/non-glycosylated peptide) in experiment [2] was under 1.2.

Take HMFG-1 (antibody): the factor (ratio of glycosylated/non-glycosylated peptide) in experiment [2] was under 1.2.
